Our source for the response (Absorbance (650 nm) x 1000/min) values is paper PMC4316792, “The dehydrogenase region of the NADPH oxidase component Nox2 acts as a protein disulfide isomerase (PDI) resembling PDIA3 with a role in the binding of the activator protein p67^phox” (Frontiers in Chemistry, 2015).

The labels stand for the following.
B1: p67^phox(1–212) [not stated] / Nox2 peptide 24 (357–371), dithiol form [modified: biotin on the N-terminus; C-terminal amide; cysteines 369 and 371 in the dithiol form; biotin on the N-terminus; C-terminal … (parent)
chain 1: MSLVEAISLWNEGVLAADKKDWKGALDAFSAVQDPHSRICFNIGCMYTILKNMTEAEKAFTRSINRDKHLAVAYFQRGMLYYQTEKYDLAIKDLKEALIQLRGNQLIDYKILGLQFKLFACEVLYNIAFMYAKKEEWKKAEEQLALATSMKSEPRHSKIDKAMECVWKQKLYEPVVIPVGKLFRPNERQVAQLAKKDYLGKATVVASVVDQD
chain 2: SGSGIVGDWTEGLFNACGC

In this assay the parent is B1. The assay is described as follows: peptide-protein binding assay (surface-attached biotinylated peptide, protein in solution, kinetic TMB oxidation read-out). As to conditions: with Nox2 peptide 24 (357–371), 10 min kinetic experiment, read off a plot.
For chain 1 C40S C45S C121S C165S, the response (Absorbance (650 nm) x 1000/min) was determined as 10.
